Laboratory results from PMC7969031.
Each block holds one molecule with its values, some of them ahead of it.

What was measured:
[1] = target: Cas4 of the Synechocystis sp. PCC6803 type I-D CRISPR-Cas system, untagged (Synechocystis sp. PCC6803); experiment: SEC-MALS
[2] = target: Cas1 of the Synechocystis sp. PCC6803 type I-D CRISPR-Cas system, untagged (Synechocystis sp. PCC6803); experiment: crystal structure
[3] = target: Cas1 of the Synechocystis sp. PCC6803 type I-D CRISPR-Cas system, untagged (Synechocystis sp. PCC6803); experiment: negative-stain electron microscopy
[4] = target: Cas2 of the Synechocystis sp. PCC6803 type I-D CRISPR-Cas system, untagged (Synechocystis sp. PCC6803); experiment: crystal structure
[5] = target: T1, Cas1 (type I-D);Cas2 (type I-D) (Synechocystis sp. PCC6803;Synechocystis …, UniProt Q6ZEI2;Q6ZEI1 1-325;1-94, |); experiment: EMSA
T1 sequence 1: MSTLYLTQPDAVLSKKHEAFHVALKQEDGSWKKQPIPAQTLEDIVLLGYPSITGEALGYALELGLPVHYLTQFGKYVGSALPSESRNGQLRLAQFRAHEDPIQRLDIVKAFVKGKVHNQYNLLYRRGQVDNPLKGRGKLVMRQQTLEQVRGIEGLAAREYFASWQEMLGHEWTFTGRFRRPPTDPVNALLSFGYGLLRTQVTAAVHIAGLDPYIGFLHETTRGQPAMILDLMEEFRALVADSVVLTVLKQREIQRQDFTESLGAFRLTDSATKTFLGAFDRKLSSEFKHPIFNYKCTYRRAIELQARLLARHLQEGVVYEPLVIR
T1 sequence 2: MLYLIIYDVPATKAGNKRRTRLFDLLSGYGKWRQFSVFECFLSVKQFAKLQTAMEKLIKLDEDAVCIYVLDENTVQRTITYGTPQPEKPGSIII

Cas1 (type I-D) = target: T2, Cas1 (type I-D) (Synechocystis sp. PCC6803, UniProt Q6ZEI2 1-325); experiment: EMSA
T2 sequence: T1 sequence 1

[6] = target: T1, Cas1 (type I-D);Cas2 (type I-D); experiment: X-ray crystal structure
[7] = target: T1, Cas1 (type I-D);Cas2 (type I-D); experiment: X-ray crystal structure; remark: listed apart in the source

stoichiometry N (Cas1 per Cas4) [1]: 2
stoichiometry N [2]: 2
stoichiometry N [3]: 2
Molecule: Cas1 of the Synechocystis sp. PCC6803 type I-D CRISPR-Cas system, untagged (natural protein)

stoichiometry N [4]: 2
Molecule: Cas2 of the Synechocystis sp. PCC6803 type I-D CRISPR-Cas system, untagged (natural protein)

B1: dsDNA EMSA substrate (dsDNA)
DNA 1: TGTGCCCCTGGCGGTCGCTTTCTTTTT
DNA 2: AAAAAGAAAGCGACCGCCAGGGGCACA
binding result [5]: binds
binding result (Cas1 (type I-D)): binds

B2: 26-5-5 double-forked prespacer (dsDNA)
DNA 1: TTTTTTTGTGCCCCTGGCGGTCGCTTTCAAGTTTTT
DNA 2: TTTTTCTTGAAAGCGACCGCCAGGGGCACAATTTTT
binding result [6]: binds

B3: 22-7-7 double-forked prespacer (dsDNA)
DNA 1: TTTTTTTTGTGCCCCTGGCGGTCGCTTTCTTTTTTT
DNA 2: TTTTTTTGAAAGCGACCGCCAGGGGCACATTTTTTT
binding result [7]: binds
